# Results taken from publication PMC3701577, “Characterization of DNA Binding Property of the HIV-1 Host Factor and Tumor Suppressor Protein Integrase Interactor 1 (INI1/hSNF5)”.
# T1: SNR1 DBD, SNR1(90-167) (Drosophila melanogaster, UniProt Q7K0F9 90-167)
# T1 sequence: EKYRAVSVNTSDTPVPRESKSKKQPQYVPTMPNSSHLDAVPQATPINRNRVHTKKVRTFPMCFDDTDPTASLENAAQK
# B1: U5 HIV-1 LTR DNA (U5.4/U5.5) (dsDNA)
# DNA 1: ACTGCTAGAGATTTTCCGGATCC
# DNA 2: GGATCCGGAAAATCTCTAGCA
# Columns and labels:
# [1] = biological target: INI1 DNA binding domain (INI1/hSNF5 amino acids 105-183) (human) (UniProt Q12824); test: AUC; sedimentation equilibrium, 60 µM INI1 DBD (monomer concentration), 4°C, 13,000-28,000 rpm, 20 mM HEPES-KOH pH 7.2, 100 mM KCl, 5-7% glycerol, 1 mM DTT, absorbance at 280 nm; species analysis in SEDPHAT
# INI1 DBD, INI1(105-183) = INI1 DBD, INI1(105-183) (human, UniProt Q12824 105-183); test: ITC; 10 uM monomer, 55 uM DNA in syringe; one-site, N=0.49; ITC at 25 C (buffer not stated in material; protein dialyzed in 20 mM HEPES pH 7.2, 100 mM KCl, 10% glycerol, 0.1 mM EDTA, 1 mM DTT); pull-down in 20 mM HEPES pH 7.2, 100 mM KCl, 5% glycerol, 1 mM DTT, RT 30 min then ice; conditions: protein: recombinant; tags: His tag (pET28a), 24-aa N-terminal extension; 5' overhang 2 nt on strand 1 (AC)
# [2] = biological target: INI1 DBD dimer, INI1(105-183) (human, UniProt Q12824 105-183); test: ITC; 30 uM dimer, 325 uM DNA in syringe; sequential model, first binding event; ITC at 25 C (buffer not stated in material; protein dialyzed in 20 mM HEPES pH 7.2, 100 mM KCl, 10% glycerol, 0.1 mM EDTA, 1 mM DTT); pull-down in 20 mM HEPES pH 7.2, 100 mM KCl, 5% glycerol, 1 mM DTT, RT 30 min then ice; conditions: protein: recombinant; tags: His tag (pET28a), 24-aa N-terminal extension; chain copies: 2; 5' overhang 2 nt on strand 1 (AC)
# SNR1 DBD, SNR1(90-167) = biological target: T1, SNR1 DBD, SNR1(90-167); test: Ni-NTA pull-down; 55 uM dimer, 110 uM DNA; ITC at 25 C (buffer not stated in material; protein dialyzed in 20 mM HEPES pH 7.2, 100 mM KCl, 10% glycerol, 0.1 mM EDTA, 1 mM DTT); pull-down in 20 mM HEPES pH 7.2, 100 mM KCl, 5% glycerol, 1 mM DTT, RT 30 min then ice; conditions: protein: recombinant; tags: His tag (pET28a), 37-aa N-terminal extension; chain copies: 2; 5' overhang 2 nt on strand 1 (AC)
# INI1 DBD dimer, INI1(105-183), sequence (Q12824 105-183): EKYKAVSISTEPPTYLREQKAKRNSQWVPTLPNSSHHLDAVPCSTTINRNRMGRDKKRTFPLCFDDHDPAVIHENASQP
# INI1 DBD, INI1(105-183), sequence (Q12824 105-183): as above
Molecule,stoichiometry N [1],"Kd (INI1 DBD, INI1(105-183)) [µM]",Kd [2] [µM],"binding result (SNR1 DBD, SNR1(90-167))"
INI1 DNA binding domain (INI1/hSNF5 amino acids 105-183) (from UniProt Q12824 105-183) (domain or fragment),2,,,
B1,,0.94 ± 0.02,222 ± 51.8,binds
